Assay results: patent US20090148437A1

How the values were obtained:
[1] = target: human TNFR1 (soluble recombinant protein) (human) (UniProt P19438); assay: phage ELISA, 1 nM TNFRI coat; no trypsin; phage input 3.52E+08
[2] = target: human TNFR1 (soluble recombinant protein) (human) (UniProt P19438); assay: phage ELISA, 1 nM TNFRI coat; 100 µg/ml trypsin; phage input 2.26E+10
[3] = target: human TNFR1 (soluble recombinant protein) (human) (UniProt P19438); assay: phage ELISA, 1 nM TNFRI coat; 100 µg/ml trypsin; phage input 5.64E+09
[4] = target: human TNFR1 (soluble recombinant protein) (human) (UniProt P19438); assay: phage ELISA, 1 nM TNFRI coat; 100 µg/ml trypsin; phage input 7.05E+08
[5] = target: human TNFR1 (soluble recombinant protein) (human) (UniProt P19438); assay: phage ELISA, 1 nM TNFRI coat; 100 µg/ml trypsin; phage input 3.52E+08
[6] = target: human TNFR1 (soluble recombinant protein) (human) (UniProt P19438); assay: phage ELISA, 1 nM TNFRI coat; 100 µg/ml trypsin; phage input 1.13E+10
[7] = target: human TNFR1 (soluble recombinant protein) (human) (UniProt P19438); assay: phage ELISA, 1 nM TNFRI coat; no trypsin; phage input 7.05E+08
[8] = target: human TNFR1 (soluble recombinant protein) (human) (UniProt P19438); assay: phage ELISA, 1 nM TNFRI coat; 10 µg/ml trypsin; phage input 1.13E+10
[9] = target: human TNFR1 (soluble recombinant protein) (human) (UniProt P19438); assay: phage ELISA, 1 nM TNFRI coat; 10 µg/ml trypsin; phage input 1.41E+09
[10] = target: human TNFR1 (soluble recombinant protein) (human) (UniProt P19438); assay: phage ELISA, plate coated with 1 nM TNFRI, anti-M13-HRP; phage pre-treated 1 h RT with 1 mg/ml trypsin; phage input 4.51E+10
[11] = target: human TNFR1 (soluble recombinant protein) (human) (UniProt P19438); assay: phage ELISA, 1 nM TNFRI coat; 10 µg/ml trypsin; phage input 5.64E+09
[12] = target: human TNFR1 (soluble recombinant protein) (human) (UniProt P19438); assay: phage ELISA, 1 nM TNFRI coat; no trypsin; phage input 2.26E+10
[13] = target: human TNFR1 (soluble recombinant protein) (human) (UniProt P19438); assay: phage ELISA, 1 nM TNFRI coat; 100 µg/ml trypsin; phage input 2.82E+09
[14] = target: human TNFR1 (soluble recombinant protein) (human) (UniProt P19438); assay: phage ELISA, plate coated with 1 nM TNFRI, anti-M13-HRP; phage pre-treated 1 h RT with 10 µg/ml trypsin; phage input 4.51E+10
[15] = target: human TNFR1 (soluble recombinant protein) (human) (UniProt P19438); assay: phage ELISA, 1 nM TNFRI coat; no trypsin; phage input 1.13E+10
[16] = target: human TNFR1 (soluble recombinant protein) (human) (UniProt P19438); assay: phage ELISA, 1 nM TNFRI coat; 1 mg/ml trypsin; phage input 3.52E+08
[17] = target: human TNFR1 (soluble recombinant protein) (human) (UniProt P19438); assay: phage ELISA, 1 nM TNFRI coat; no trypsin; phage input 2.82E+09
[18] = target: human TNFR1 (soluble recombinant protein) (human) (UniProt P19438); assay: phage ELISA, 1 nM TNFRI coat; 1 mg/ml trypsin; phage input 2.82E+09
[19] = target: human TNFR1 (soluble recombinant protein) (human) (UniProt P19438); assay: phage ELISA, 1 nM TNFRI coat; 10 µg/ml trypsin; phage input 2.26E+10
[20] = target: human TNFR1 (soluble recombinant protein) (human) (UniProt P19438); assay: phage ELISA, 1 nM TNFRI coat; 1 mg/ml trypsin; phage input 7.05E+08
[21] = target: human TNFR1 (soluble recombinant protein) (human) (UniProt P19438); assay: phage ELISA, 1 nM TNFRI coat; 1 mg/ml trypsin; phage input 1.41E+09
[22] = target: human TNFR1 (soluble recombinant protein) (human) (UniProt P19438); assay: phage ELISA, 1 nM TNFRI coat; no trypsin; phage input 5.64E+09
[23] = target: human TNFR1 (soluble recombinant protein) (human) (UniProt P19438); assay: phage ELISA, plate coated with 1 nM TNFRI, anti-M13-HRP; phage pre-treated 1 h RT with 100 µg/ml trypsin; phage input 4.51E+10
[24] = target: human TNFR1 (soluble recombinant protein) (human) (UniProt P19438); assay: phage ELISA, 1 nM TNFRI coat; 100 µg/ml trypsin; phage input 1.41E+09
[25] = target: human TNFR1 (soluble recombinant protein) (human) (UniProt P19438); assay: phage ELISA, 1 nM TNFRI coat; 10 µg/ml trypsin; phage input 2.82E+09
[26] = target: human TNFR1 (soluble recombinant protein) (human) (UniProt P19438); assay: phage ELISA, 1 nM TNFRI coat; 1 mg/ml trypsin; phage input 1.13E+10
[27] = target: human TNFR1 (soluble recombinant protein) (human) (UniProt P19438); assay: phage ELISA, 1 nM TNFRI coat; 10 µg/ml trypsin; phage input 3.52E+08
[28] = target: human TNFR1 (soluble recombinant protein) (human) (UniProt P19438); assay: phage ELISA, plate coated with 1 nM TNFRI, anti-M13-HRP; no trypsin (0 µg/ml); phage input 4.51E+10
[29] = target: human TNFR1 (soluble recombinant protein) (human) (UniProt P19438); assay: phage ELISA, 1 nM TNFRI coat; no trypsin; phage input 1.41E+09
[30] = target: human TNFR1 (soluble recombinant protein) (human) (UniProt P19438); assay: phage ELISA, 1 nM TNFRI coat; 1 mg/ml trypsin; phage input 2.26E+10
[31] = target: human TNFR1 (soluble recombinant protein) (human) (UniProt P19438); assay: phage ELISA, 1 nM TNFRI coat; 10 µg/ml trypsin; phage input 7.05E+08

Sequence of human TNFR1 (soluble recombinant protein) (human) (P19438 30-211 limits assumed): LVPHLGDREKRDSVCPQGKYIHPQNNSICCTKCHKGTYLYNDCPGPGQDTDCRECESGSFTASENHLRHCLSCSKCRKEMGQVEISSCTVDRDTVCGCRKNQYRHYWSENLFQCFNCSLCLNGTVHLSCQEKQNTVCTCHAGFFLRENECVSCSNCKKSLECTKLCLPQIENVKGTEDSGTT

phage ELISA read-out [1]: 0.577
phage ELISA read-out [2]: 0.377
phage ELISA read-out [3]: 0.196
phage ELISA read-out [4]: 0.084
phage ELISA read-out [5]: 0.084
phage ELISA read-out [6]: 0.284
phage ELISA read-out [7]: 0.705
phage ELISA read-out [8]: 0.86
phage ELISA read-out [9]: 0.409
phage ELISA read-out [10]: 0.284
phage ELISA read-out [11]: 0.695
phage ELISA read-out [12]: 0.944
phage ELISA read-out [13]: 0.141
phage ELISA read-out [14]: 0.784
phage ELISA read-out [15]: 0.949
phage ELISA read-out [16]: 0.08
phage ELISA read-out [17]: 0.946
phage ELISA read-out [18]: 0.114
phage ELISA read-out [19]: 0.802
phage ELISA read-out [20]: 0.084
phage ELISA read-out [21]: 0.089
phage ELISA read-out [22]: 0.962
phage ELISA read-out [23]: 0.418
phage ELISA read-out [24]: 0.115
phage ELISA read-out [25]: 0.573
phage ELISA read-out [26]: 0.183
phage ELISA read-out [27]: 0.213
phage ELISA read-out [28]: 0.916
phage ELISA read-out [29]: 0.85
phage ELISA read-out [30]: 0.229
phage ELISA read-out [31]: 0.286
Substance: DOM1h-131
